Laboratory results taken from US10184140B2, “Materials and methods for production of bi-functional fatty acids in recombinant bacteria” (IOWA STATE UNIVERSITY RESEARCH FOUNDATION, INC., priority 2013, dated 2019).

What was measured:
[1] = Spectrophotometric coupled assay (FabD/FabG, NADPH at 340 nm) of KASIII specific activity with acyl-CoA substrates; settings: for Specific Activity with Acetyl-CoA: substrate acetyl-CoA; for Specific Activity with Acetyl-CoA / Specific Activity with Isobutyryl-CoA: n.d. = not detectable; for Specific Activity with Isobutyryl-CoA: substrate isobutyryl-CoA
Description: The method comprises (i) incubating holo-ACP, malonyl-CoA, acyl-CoA, NADPH, and malonyl-CoA:ACP transacylase (FabD), (ii) adding KASIII and 3-ketoacyl-ACP reductase (FabG), and (iii) measuring the change in absorbance at 340 nm when NADPH is converted to NADP+ during reduction of 3-ketoacyl-ACP to 3-hydroxyl-acyl ACP by FabG.
Activity of A. acidocaldarius KASIII with different acyl-CoA substrates (acetyl-CoA, isobutyryl-CoA and 3-hydroxybutyryl-CoA (Sigma-Aldrich)) was ascertained by a coupled assay. The assay was performed in 96-well plate format with three replicates for each reaction condition. In a total volume of 100 μl for each reaction the reaction mix containing 100 μM holo-ACP, 200 μM malonyl-CoA, 10 mM DTT, 50 μM acyl-CoA substrate (either acetyl-CoA, isobutyryl-CoA or 3-hydroxy-butyryl-CoA) and 200 μM NADPH in 0.1 M sodium phosphate buffer (pH 7.2) was pre-incubated with 60 μg of FabD for two minutes. The reaction was started by the addition of 30 μg of FabG and varying concentrations of A. acidocaldarius (0.5-15 μg). Change in absorbance of NADPH that was being converted to NADP^+ during reduction of 3-ketoacyl-ACP 3-hydroxy-acyl-ACP by FabG was recorded at 340 nm using a Biotek multi-plate reader.
Spectrophotometric assay was used to assess the activity of A. acidocaldarius KASIII with various acyl-CoA substrates. The assay coupled the appearance of the KASIII-product (3-ketoacyl-ACP) to the oxidation of NADPH, catalyzed by 3-ketoacyl-ACP reductase (FabG).
KASIII enzymatic activity was ascertained via spectrophotometric assay, which coupled the appearance of 3-ketoacyl-ACP to the oxidation of NADPH, using the E. coli FabG protein to reduce 3-ketoacyl-ACP to 3-hydroxyacyl-ACP. The assay was performed in a 96-well plate-format with three technical replicates for each reaction condition. In a total volume of 100 μl for each reaction, the reaction mix contained 100 μM holo-ACP, 200 μM malonyl-CoA, 10 mM DTT, 50 μM acyl-CoA substrate, and 200 μM NADPH in 0.1 M sodium phosphate buffer (pH 7.2). This mixture was pre-incubated with 60 μg of FabD for two minutes to initiate synthesis of malonyl-ACP from malonyl-CoA and holo-ACP. The reaction was then started by the addition of 30 μg of FabG and varying concentrations of KASIII enzyme (0.5-15 μg). As KASIII catalysed the condensation of acyl-CoA with malonyl-ACP to form 3-ketoacyl-ACP, FabG reduced the 3-ketoacyl-ACP intermediate to 3-hydroxy-acyl ACP in the presence of NADPH.

[2] = Saturation Transfer Difference NMR of KASIII enzymes with acetyl-CoA or isobutyryl-CoA; format: binding
Description: NMR experiments were performed at 25° C. on a Bruker AV700 MHz spectrometer equipped with a 5 mm HCN cryoprobe. Samples for STD NMR experiments were prepared in 0.1 M sodium phosphate buffer (pH 7.4) with 5% D2O. The protein/ligand ratio was set as 1:100 with KASIII concentration in the 20-25 μM range. Saturation was applied as CW pulse with a power of 58-60 Hz, with on-resonance pulses at 0.62 ppm and 6.86 ppm for upfield and downfield, respectively. The off-resonance pulse was applied at 45 ppm. 3-9-19 WATERGATE suppression was used with a T1-ρ filter. Saturation time of five seconds with an additional delay of 5.1 seconds was used. A set of three replicates was acquired, with 32 scans in each replicate, for each STD NMR experiment of KASIII wild-type or mutated enzyme with a ligand, which was either acetyl-CoA or isobutyryl-CoA (Sigma-Aldrich, St. Louis, Mo.). The reference and the saturated spectra were obtained in an interleaved manner. Resonance assignments of 1H NMR spectra of free ligands were completed using ID 1H and COSY.
Control experiments were carried out by applying on- and off-resonance saturation pulses either to the ligand in the absence of protein, or to the ligand in the presence of denatured protein.
Relative STD effects (ASTD) were calculated according to the equation ASTD=(Io−Isat)/Io where Isat is the signal intensity of the saturated spectrum and Io is the signal intensity of the reference spectrum (Mayer et al., J. Am. Chem. Soc. 123: 6108-6117 (2001)). STD amplification factor was calculated according to the equation: STDaf=ASTD×molar ligand excess.
STD NMR experiments elucidated interactions of these purified enzymes (both wild-type and mutated) with straight-chain substrate (acetyl-CoA) and branched-chain substrate (isobutyryl-CoA) and enabled mapping of binding epitopes on the two substrates. Relative saturation transfer to each of the binding epitopes was measured and converted to the STD amplification factor (STDaf), which is an indicator of ligand binding (Mayer et al., J. Am. Chem. Soc. 123: 6108-6117 (2001)). Ligand epitopes with high STDaf values are assumed to receive higher saturation transfer from the enzyme, and thus are in close contact with the enzyme.

B1: B. subtilis KASIIIa Wild-type: B. subtilis KASIIIA, bfabHA (yjaX) locus, GenBank CAB12974.1, amino acid sequence SEQ ID NO:64 (protein)
chain: MKAGILGVGRYIPEKVLTNHDLEKMVETSDEWIRTRTGIEERRIAADDVFSSHMAVAAAKNALEQAEVAAEDLDMILVATVTPDQSFPTVSCMIQEQLGAKKACAMDISAACAGFMYGVVTGKQFIESGTYKHVLVVGVEKLSSITDWEDRNTAVLFGDGAGAAVVGPVSDDRGILSFELGADGTGGQHLYLNEKRHTIMNGREVFKFAVRQMGESCVNVIEKAGLSKEDVDFLIPHQANIRIMEAARERLELPVEKMSKTVHKYGNTSAASIPISLVEELEAGKIKDGDVVVMVGFGGGLTWGAIAIRWGR
modifications: B. subtilis
Catalytic activity with the isobutyryl-CoA substrate retained ([1]; conserved Phe mutated to Ala, compared with wild-type): about 25% | Specific Activity with Acetyl-CoA [1]: 64 ± 32 nmol/min/mg | Specific Activity with Isobutyryl-CoA [1]: 205 ± 139 nmol/min/mg | Higher saturation of HAP proton of isobutyryl-CoA as compared to the acetyl-CoA HAP proton ([2]; isobutyryl-CoA vs acetyl-CoA): ~28% | STD amplification factor (STDaf), HT proton of acetyl-CoA ([2]; protein/ligand 1:100, 25° C.): 1.5 | STD amplification factor (STDaf), HT proton of isobutyryl-CoA ([2]; protein/ligand 1:100, 25° C.): 1.5

B2: B. subtilis KASIIIa F297A: B. subtilis KASIII containing an F297A mutation, amino acid sequence SEQ ID NO:126 (protein)
chain: MKAGILGVGRYIPEKVLTNHDLEKMVETSDEWIRTRTGIEERRIAADDVFSSHMAVAAAKNALEQAEVAAEDLDMILVATVTPDQSFPTVSCMIQEQLGAKKACAMDISAACAGFMYGVVTGKQFIESGTYKHVLVVGVEKLSSITDWEDRNTAVLFGDGAGAAVVGPVSDDRGILSFELGADGTGGQHLYLNEKRHTIMNGREVFKVAVRQLGESCVNVIEKAGLSKEDVDFLIPHQANIRIMEAARERLELPVEKMSKTVHKYGNTSAASIPISLVEELEAGKIKDGDVVVMVGAGGGLTWGAIAIRWGR
modifications: B. subtilis KASIIIA mutant; (297)..(297) phenylalanine at amino acid position 297 replaced with alanine
Specific Activity with Isobutyryl-CoA [1]: 56 ± 28 nmol/min/mg

B3: B. subtilis KASIIIa F208V: B. subtilis KASIIIA single mutant F208V, amino acid sequence SEQ ID NO:120 (protein)
chain: MKAGILGVGRYIPEKVLTNHDLEKMVETSDEWIRTRTGIEERRIAADDVFSSHMAVAAAKNALEQAEVAAEDLDMILVATVTPDQSFPTVSCMIQEQLGAKKACAMDISAACAGFMYGVVTGKQFIESGTYKHVLVVGVEKLSSITDWEDRNTAVLFGDGAGAAVVGPVSDDRGILSFELGADGTGGQHLYLNEKRHTIMNGREVFKVAVRQMGESCVNVIEKAGLSKEDVDFLIPHQANIRIMEAARERLELPVEKMSKTVHKYGNTSAASIPISLVEELEAGKIKDGDVVVMVGFGGGLTWGAIAIRWGR
modifications: B. subtilis KASIIIA mutant; (208)..(208) phenylalanine at amino acid position 208 replaced with valine
Decrease in saturation transfer/STDaf for isobutyryl-CoA HT and HB protons in comparison to the wild-type ([2]; mutant vs wild-type): ~40%

B4: B. subtilis KASIIIa F208V_M213L: B. subtilis KASIIIA double mutant F208V_M213L, amino acid sequence SEQ ID NO:124 (protein)
chain: MKAGILGVGRYIPEKVLTNHDLEKMVETSDEWIRTRTGIEERRIAADDVFSSHMAVAAAKNALEQAEVAAEDLDMILVATVTPDQSFPTVSCMIQEQLGAKKACAMDISAACAGFMYGVVTGKQFIESGTYKHVLVVGVEKLSSITDWEDRNTAVLFGDGAGAAVVGPVSDDRGILSFELGADGTGGQHLYLNEKRHTIMNGREVFKVAVRQLGESCVNVIEKAGLSKEDVDFLIPHQANIRIMEAARERLELPVEKMSKTVHKYGNTSAASIPISLVEELEAGKIKDGDVVVMVGFGGGLTWGAIAIRWGR
modifications: B. subtilis KASIIIA double mutant; (208)..(208) phenylalanine at amino acid position 208 replaced with valine; (213)..(213) methionine at amino acid position 213 replaced with leucine
Specific Activity with Isobutyryl-CoA [1]: 17 ± 7 nmol/min/mg

B5: B. subtilis KASIIIb W221V: B. subtilis KASIIIB single mutant W221V, amino acid sequence SEQ ID NO:128 (protein)
chain: MSKAKITAIGTYAPSRRLTNADLEKIVDTSDEWIVQRTGMRERRIADEHQFTSDLCIEAVKNLKSRYKGTLDDVDMILVATTTSDYAFPSTACRVQEYFGWESTGALDINATCAGLTYGLHLANGLITSGLHQKILVIAGETLSKVTDYTDRTTCVLFGDAAGALLVERDEETPGFLASVQGTSGNGGDILYRAGLRNEINGVQLVGSGKMVQNGREVYKVAARTVPGEFERLLHKAGLSSDDLDWFVPHSANLRMIESICEKTPFPIEKTLTSVEHYGNTSSVSIVLALDLAVKAGKLKKDQIVLLFGFGGGLTYTGLLIKWGM
modifications: B. subtilis KASIIIB mutant; (221)..(221) tryptophan at amino acid position 221 replaced with valine
Specific Activity with Isobutyryl-CoA [1]: completely eliminated activity

B6: B. subtilis KASIIIb V226L: B. subtilis KASIIIB single mutant V226L, amino acid sequence SEQ ID NO:130 (protein)
chain: MSKAKITAIGTYAPSRRLTNADLEKIVDTSDEWIVQRTGMRERRIADEHQFTSDLCIEAVKNLKSRYKGTLDDVDMILVATTTSDYAFPSTACRVQEYFGWESTGALDINATCAGLTYGLHLANGLITSGLHQKILVIAGETLSKVTDYTDRTTCVLFGDAAGALLVERDEETPGFLASVQGTSGNGGDILYRAGLRNEINGVQLVGSGKMVQNGREVYKWAARTLPGEFERLLHKAGLSSDDLDWFVPHSANLRMIESICEKTPFPIEKTLTSVEHYGNTSSVSIVLALDLAVKAGKLKKDQIVLLFGFGGGLTYTGLLIKWGM
modifications: B. subtilis KASIIIB mutant; (226)..(226) valine at amino acid position 226 replaced with leucine
Loss of activity with isobutyryl-CoA ([1]; mutant compared with wild-type enzyme): approximately 50% | Specific Activity with Isobutyryl-CoA [1]: 134 ± 6 nmol/min/mg

B7: E. coli KASIII F304A (protein)
chain: MYTKIIGTGSYLPEQVRTNADLEKMVDTSDEWIVTRTGIRERHIAAPNETVSTMGFEAATRAIEMAGIEKDQIGLIVVATTSATHAFPSAACQIQSMLGIKGCPAFDVAAACAGFTYALSVADQYVKSGAVKYALVVGSDVLARTCDPTDRGTIIIFGDGAGAAVLAASEEPGIISTHLHADGSYGELLTLPNADRVNPENSIHLTMAGNEVFKFAVTEMAHIVDETLAANNLDRSQLDWLVPHQANLRIISATAKKLGMSMDNVVVTLDRHGNTSAASVPCALDEAVRDGRIKPGQLVLLEAAGGGFTWGSALVRF
modifications: E. coli mutant; (304)..(304) phenylalanine at amino acid position 304 replaced with alanine
Lower saturation transfer to the HT protons of acetyl-CoA and isobutyryl-CoA compared to the wild-type ([2]; mutant vs wild-type): approximately 60%

B8: E. coli KASIII V215F_L220M: E. coli KASIII double mutant V215F_L220M, amino acid sequence SEQ ID NO:116 (protein)
chain: MYTKIIGTGSYLPEQVRTNADLEKMVDTSDEWIVTRTGIRERHIAAPNETVSTMGFEAATRAIEMAGIEKDQIGLIVVATTSATHAFPSAACQIQSMLGIKGCPAFDVAAACAGFTYALSVADQYVKSGAVKYALVVGSDVLARTCDPTDRGTIIIFGDGAGAAVLAASEEPGIISTHLHADGSYGELLTLPNADRVNPENSIHLTMAGNEVFKFAVTEMAHIVDETLAANNLDRSQLDWLVPHQANLRIISATAKKLGMSMDNVVVTLDRHGNTSAASVPCALDEAVRDGRIKPGQLVLLEAFGGGFTWGSALVRF
modifications: E. coli mutant; (215)..(215) valine at amino acid position 215 replaced with phenylalanine; (220)..(220) leucine at amino acid position 220 replaced with methionine
Specific Activity with Acetyl-CoA [1]: 221 ± 104 nmol/min/mg | Specific Activity with Isobutyryl-CoA [1]: 18 ± 5 nmol/min/mg
